MFI, fold over isotype control antibody and fold reduction in signal with 25 mM lactose data for two substances are collected here from patent US20260234269A1.

Experiment [1] addresses mouse Gal3 on mouse cells (B16F10 tumor cells, RAW264.7 macrophages) (mouse) (UniProt P16110). The experiment is described as follows: flow cytometry, B16F10 cells.
The target in experiment [2] is human Gal9 protein (R&D systems) (human) (UniProt O00182). The experiment can be described thus: ELISA, hGal9 coated, mTIM-3 Fc with or without 25 mM lactose. Background: ELISA stands for enzyme-linked immunosorbent assay.

Where only a bound is given, the exact number is not on record here.

human Gal9 protein (R&D systems) (human), sequence (O00182 other isoform, or with tags, fused parts or gaps limits assumed): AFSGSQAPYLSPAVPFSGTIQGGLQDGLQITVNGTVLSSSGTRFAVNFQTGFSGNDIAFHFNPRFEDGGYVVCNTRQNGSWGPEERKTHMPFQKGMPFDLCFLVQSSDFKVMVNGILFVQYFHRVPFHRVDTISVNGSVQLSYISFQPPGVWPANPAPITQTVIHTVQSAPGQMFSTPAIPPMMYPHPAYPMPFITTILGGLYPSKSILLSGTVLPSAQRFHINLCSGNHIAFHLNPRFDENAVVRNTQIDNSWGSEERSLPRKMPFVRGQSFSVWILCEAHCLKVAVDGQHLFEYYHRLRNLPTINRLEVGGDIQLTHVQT
mouse Gal3 on mouse cells (B16F10 tumor cells, RAW264.7 macrophages) (mouse), sequence (P16110 2-264): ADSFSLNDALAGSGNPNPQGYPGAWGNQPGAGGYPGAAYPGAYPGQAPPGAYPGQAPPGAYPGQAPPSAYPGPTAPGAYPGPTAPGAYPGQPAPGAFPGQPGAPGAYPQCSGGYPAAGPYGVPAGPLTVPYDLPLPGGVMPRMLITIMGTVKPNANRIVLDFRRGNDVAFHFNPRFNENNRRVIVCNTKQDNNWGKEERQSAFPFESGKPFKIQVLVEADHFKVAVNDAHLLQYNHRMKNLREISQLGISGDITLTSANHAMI

Consider “rat anti mouse Gal3 PE antibody (Thermo Fisher Scientific)”, for which, in experiment [1], the MFI, fold over isotype control antibody came out at 10 fold.
In experiment [2], “mouse TIM-3 Fc protein (R&D systems) (from UniProt Q8VIM0 20-191) (Fc fusion)” displayed a fold reduction in signal with 25 mM lactose of more than 10 fold.
